Reference: patent US20220017635A1 (Kyowa Kirin, published 2022)

T1: huTfR with mouse protease-like domain (human/mouse chimera)
T1 construct: His tag added; also called chimeric protein of human TfR extracellular domain with mouse protease-like domain
T1 chain: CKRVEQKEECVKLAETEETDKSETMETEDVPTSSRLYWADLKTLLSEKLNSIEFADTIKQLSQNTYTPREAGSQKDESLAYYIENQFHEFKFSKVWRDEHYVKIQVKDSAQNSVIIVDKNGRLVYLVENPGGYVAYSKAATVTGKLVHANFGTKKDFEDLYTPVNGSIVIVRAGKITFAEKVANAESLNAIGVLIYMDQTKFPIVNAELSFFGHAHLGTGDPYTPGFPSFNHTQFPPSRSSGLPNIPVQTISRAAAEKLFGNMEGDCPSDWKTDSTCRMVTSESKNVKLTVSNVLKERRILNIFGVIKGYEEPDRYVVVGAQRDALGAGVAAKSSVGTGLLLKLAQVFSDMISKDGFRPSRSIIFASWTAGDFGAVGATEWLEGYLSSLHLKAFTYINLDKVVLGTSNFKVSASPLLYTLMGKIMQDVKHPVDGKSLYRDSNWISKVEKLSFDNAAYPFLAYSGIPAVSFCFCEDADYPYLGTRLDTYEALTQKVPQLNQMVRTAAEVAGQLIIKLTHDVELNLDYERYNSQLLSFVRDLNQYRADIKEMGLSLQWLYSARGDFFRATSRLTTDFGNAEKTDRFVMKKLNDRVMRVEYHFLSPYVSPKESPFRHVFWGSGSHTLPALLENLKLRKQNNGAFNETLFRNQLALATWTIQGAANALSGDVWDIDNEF

T2: chimeric TfR A02 (human/mouse chimera, UniProt P02786 89-760)
T2 construct: also called D352S-S355A-D356R-K358N
T2 chain: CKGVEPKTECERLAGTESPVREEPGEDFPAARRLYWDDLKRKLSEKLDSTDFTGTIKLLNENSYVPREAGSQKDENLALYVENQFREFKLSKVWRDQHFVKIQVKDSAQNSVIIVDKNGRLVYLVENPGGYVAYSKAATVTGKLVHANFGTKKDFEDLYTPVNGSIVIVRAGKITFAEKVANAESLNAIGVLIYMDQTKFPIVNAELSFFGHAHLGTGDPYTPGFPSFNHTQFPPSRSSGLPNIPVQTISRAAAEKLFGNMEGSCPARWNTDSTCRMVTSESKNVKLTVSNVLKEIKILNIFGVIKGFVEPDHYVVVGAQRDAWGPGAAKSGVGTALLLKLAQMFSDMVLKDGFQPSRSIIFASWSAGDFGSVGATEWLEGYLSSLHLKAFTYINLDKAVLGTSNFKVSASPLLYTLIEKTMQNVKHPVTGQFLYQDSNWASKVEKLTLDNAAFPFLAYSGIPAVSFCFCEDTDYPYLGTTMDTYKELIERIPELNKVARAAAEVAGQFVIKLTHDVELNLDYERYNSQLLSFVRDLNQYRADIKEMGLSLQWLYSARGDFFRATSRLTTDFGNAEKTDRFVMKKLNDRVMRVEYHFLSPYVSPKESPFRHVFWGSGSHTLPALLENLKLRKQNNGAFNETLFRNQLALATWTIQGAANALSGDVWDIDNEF

T3: huTfR with mouse apical domain (human/mouse chimera, UniProt P02786 89-760)
T3 construct: His tag added; also called chimeric protein of human TfR extracellular domain with mouse apical domain
T3 chain: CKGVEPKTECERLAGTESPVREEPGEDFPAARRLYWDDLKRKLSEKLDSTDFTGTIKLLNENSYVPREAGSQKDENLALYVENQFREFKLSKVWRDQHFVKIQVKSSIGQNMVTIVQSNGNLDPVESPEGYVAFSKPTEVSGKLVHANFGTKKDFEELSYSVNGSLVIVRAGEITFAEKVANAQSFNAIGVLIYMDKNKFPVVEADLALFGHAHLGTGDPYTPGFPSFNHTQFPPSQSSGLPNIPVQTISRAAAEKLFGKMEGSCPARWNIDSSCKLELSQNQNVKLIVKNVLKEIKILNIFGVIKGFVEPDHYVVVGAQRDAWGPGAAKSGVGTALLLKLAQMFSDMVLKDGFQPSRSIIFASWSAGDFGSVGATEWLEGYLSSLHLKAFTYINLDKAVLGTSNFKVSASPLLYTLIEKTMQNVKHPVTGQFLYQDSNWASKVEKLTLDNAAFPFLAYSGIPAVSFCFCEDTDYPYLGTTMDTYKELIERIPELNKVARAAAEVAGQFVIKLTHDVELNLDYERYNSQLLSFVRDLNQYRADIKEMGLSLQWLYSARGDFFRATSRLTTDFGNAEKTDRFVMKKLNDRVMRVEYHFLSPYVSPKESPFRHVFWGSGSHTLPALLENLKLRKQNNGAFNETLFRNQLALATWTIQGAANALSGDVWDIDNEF


Key:
chimeric TfR A07 = target: T4, chimeric TfR A07 (human/mouse chimera, UniProt P02786 89-760); assay: ELISA on immobilized chimeric TfR; grade = binding relative to His-huTfR (++ 0.5 or more, + 0.2 to less than 0.5)
T4 construct: also called M365L-V366E-E369Q
Description: (§1) ELISA was carried out by the following method. To a 96-well immunoplate (NUNC, Inc.) on which an antigen protein was immobilized, 1% (w/v) BSA-PBS(−) pH 7.0 without KCl (hereinafter referred to as blocking solution, Nacalai Tesque, Inc.) was added to perform blocking at room temperature, and thereafter, the anti-TfR antibody diluted with the same solution was added thereto and a reaction was allowed to proceed at room temperature for 1 hour. Thereafter, washing was performed with 0.05% (w/v)-tPBS (1×) without KCl (pH 7.2) (hereinafter referred to as washing solution, Nacalai Tesque, Inc.), Anti-Human IgG (Fc) Goat IgG Fab″-HRP (IBL, Inc.) diluted with the blocking solution was added thereto, and a reaction was allowed to proceed at room temperature for 1 hour. Thereafter, washing was performed with the washing solution, and 1-Step (registered trademark) Ultra TMB-ELISA Substrate Solution (Thermo, Inc.) was added thereto, and a reaction was allowed to proceed at room temperature. The coloring reaction was stopped by adding a 5 N HCl solution, and an absorbance at a wavelength of 450 nm (reference wavelength: 570 nm) was measured using a plate reader (EPOCH 2: BioTek Instruments, Inc.).
(§2) Further, a value obtained by subtracting the absorbance at the reference wavelength of 570 nm from the absorbance at a wavelength of 450 nm was regarded as the binding activity to any of various types of antigen proteins, and a case where a value obtained by dividing the binding activity to any of various types of chimeric TfR by the binding activity to His-huTfR was 0.5 or more was denoted by ++, a case where the value was 0.2 or more and less than 0.5 was denoted by +, and a case where the value was less than 0.2 was denoted by −.

[1] = target: T1, huTfR with mouse protease-like domain; assay: as above
Description: as §1, §2

chimeric TfR A02 = target: T2, chimeric TfR A02; assay: as above
Description: as §1, §2

chimeric TfR A03 = target: T5, chimeric TfR A03 (human/mouse chimera, UniProt P02786 89-760); assay: as above
T5 construct: also called D245E-K261E
Description: as §1, §2

chimeric TfR A04 = target: T6, chimeric TfR A04 (human/mouse chimera, UniProt P02786 89-760); assay: as above
T6 construct: also called D245E-K261E-D356R
Description: as §1, §2

chimeric TfR A14 = target: T7, chimeric TfR A14 (human/mouse chimera, UniProt P02786 89-760); assay: as above
T7 construct: also called D204Q-K205S-E369Q
Description: as §1, §2

[2] = target: T3, huTfR with mouse apical domain; assay: ELISA on immobilized chimeric TfR
Description: as §1, §2

chimeric TfR A05 [3] = target: T8, chimeric TfR A05 (human/mouse chimera, UniProt P02786 89-760); assay: ELISA on immobilized chimeric TfR
T8 construct: also called P249S-L274F
Description: as §1, §2

[4] = target: T3, huTfR with mouse apical domain; assay: ELISA on immobilized chimeric TfR; grade = binding relative to His-huTfR (++ 0.5 or more, + 0.2 to less than 0.5)
Description: as §1, §2

chimeric TfR A05 [5] = target: T8, chimeric TfR A05; assay: as above
Description: as §1, §2

[6] = target: T1, huTfR with mouse protease-like domain; assay: ELISA on immobilized chimeric TfR
Description: as §1, §2

mouse TfR on CHO cells = target: T9, mouse TfR on CHO cells (mouse, UniProt Q62351 1-763); assay: flow cytometry on mouse TfR/CHO cells
T9 construct: also called mouse TfR/CHO
Description: Subsequently, an epitope analysis for various types of TfR antibodies was carried out.

Row | Binder | ratio of ELISA binding activity (A450-A570) to chimeric TfR over that to His-huTfR (chimeric TfR A07) | ratio of ELISA binding activity (A450-A570) to chimeric TfR over that to His-huTfR [1] | ratio of ELISA binding activity (A450-A570) to chimeric TfR over that to His-huTfR (chimeric TfR A02) | ratio of ELISA binding activity (A450-A570) to chimeric TfR over that to His-huTfR (chimeric TfR A03) | ratio of ELISA binding activity (A450-A570) to chimeric TfR over that to His-huTfR (chimeric TfR A04) | ratio of ELISA binding activity (A450-A570) to chimeric TfR over that to His-huTfR (chimeric TfR A14) | ratio of ELISA binding activity (A450-A570) to chimeric TfR over that to His-huTfR [2] | ratio of ELISA binding activity (A450-A570) to chimeric TfR over that to His-huTfR (chimeric TfR A05 [3]) | ratio of ELISA binding activity (A450-A570) to chimeric TfR over that to His-huTfR [4] | ratio of ELISA binding activity (A450-A570) to chimeric TfR over that to His-huTfR (chimeric TfR A05 [5]) | ratio of ELISA binding activity (A450-A570) to chimeric TfR over that to His-huTfR [6] | binding result (mouse TfR on CHO cells)
1 | T14 (antibody, V domains shown, IgG4PE or IgG4PE R409K constant region; also called anti-TfR antibody T14) VH: EVQLVESGGGLVQPGGSLRLSCVVSGGTFSNFNMNWVRQAPGKGLEWVSYISGSSSTIYYADSVKGRFTISRDNAKNSLYLQMNSLRDEDTAVYYCVSSSWYYWGQGTLVTVSS VL: not shown | ≥ 0.5 ratio | ≥ 0.5 ratio | ≥ 0.5 ratio | ≥ 0.5 ratio | 0.2 to 0.5 ratio | ≥ 0.5 ratio | < 0.2 ratio | < 0.2 ratio |  |  |  | 
2 | 2230 (antibody, V domains shown, From a hybridoma; light chain other than A27; also called clone 2230; anti-TfR antibody 2230) VH: QVQLQESGPGLVKPSETLSLTCTVSGGSISSYYWSWIRQPPGKGLEWIGYIYYSGSTNYNPSLKSRVTISLDTSKNQFSLRLSSVTTADTALYYCTREAGYYDSSGYYGFDYWGQGTLVTVSS VL: DIQMTQSPSSLSASVGDRVTITCRASQGISSWLAWYQQKPEKAPKSLIYAASSLQSGVPSRFSGSGSGTDFTLTISSLQPEDFATYFCQQYYNYPYTFGQGTKLEIK | ≥ 0.5 ratio |  | ≥ 0.5 ratio | ≥ 0.5 ratio | ≥ 0.5 ratio | ≥ 0.5 ratio |  |  | ≥ 0.5 ratio | ≥ 0.5 ratio | < 0.2 ratio | no binding
